Patent US20080207488A1, “Method for Detecting Peptides Comprising a Cross-B Structure” (priority 2005, published 2008)

Key:
[1] = Thioflavin T fluorescence; type: physicochemical
Method: Fluorescence of ThT-protein/peptide adducts was measured as follows. […] Fluorescence was measured at 485 nm upon excitation at 435 nm. Background signals from buffer, buffer with ThT and protein/peptide solution without ThT were subtracted from corresponding measurements with protein solution incubated with ThT. […] Fluorescence was measured in triplicate on a Hitachi F-4500 fluorescence spectrophotometer (Ltd., Tokyo, Japan).
Formulated protein therapeutics were obtained from the local hospital pharmacy and were used as supplied by the manufacturers. […] Lyophilized therapeutics were dissolved according to the manufacturers recommendations. […] Enhancement in fluorescence of ThT and Congo red was measured with all formulated protein therapeutics. […]
To prepare structurally altered ovalbumin (OVA) with amyloid cross-β structure conformation, purified OVA (Sigma, A-7641, lot 071k7094) was heated to 85° C. […] Native OVA (nOVA) and heat-denatured OVA (dOVA) were tested in the ThT fluorescence assay and in the Plg-activation assay. In the fluorescence assay and in the Plg-activation assay, 25 and 100 μg ml^−1 nOVA and dOVA were tested, respectively. […] In the ThT-fluorescence assay 25 μg ml^−1 nMSA and alkyl-MSA were tested, and in the Plg-activation assay 100 μg ml^−1 was tested. The presence of aggregates or fibrils was analyzed using TEM. […]

Balb/c mice [2] = test: Immunization of Balb/c mice with ovalbumin and amyloid-like ovalbumin; type: in vivo; settings: without adjuvant
Method: Eight to ten weeks old female Balb/c mice are immunized with OVA according to two immunization regimes (Central Animal Laboratories, Utrecht University, The Netherlands). Pre-immune serum was collected prior to the immunizations. In one regime two groups of five mice were subcutaneously injected five consecutive days per week, for three consecutive weeks. Doses comprised 10 μg native OVA or heat-denatured OVA for each injection. Alternatively, according to the second protocol, three groups of five mice were injected once intraperitoneally with doses comprising 5 μg nOVA, 5 μg OVA or 5 μg native OVA mixed 1:1 with complete Freund's adjuvant (CFA). Each week, blood was taken. After three weeks, a second dose was given. Incomplete Freund's adjuvant (IFA) was used instead of CFA. Blood was taken after one week after the start of the immunization. Antibody titers in sera were determined and sera were analyzed for the presence of cross-β structure conformation specific antibodies. For this purpose, nOVA was coated onto wells of 96-wells ELISA plates and incubated with dilution series of sera. Sera of the groups of five mice were pooled prior to the analyses. Plates were washed and subsequently incubated with peroxidase-conjugated rabbit anti-mouse immunoglobulins (RAMPO, P0260, DAKOCytomation, Glostrup, Denmark). Plates were subsequently developed with tetramethylbenzidine (TMB) substrate. […]

[3] = target: T1, human fibronectin finger 4,5 (Fn F4,5) fragment (Homo sapiens, UniProt P02751); test: ELISA, binding of fibronectin F4,5 to coated (mis)folded proteins; settings: coated protein, FIG. 7D-H
T1 construct: human fibronectin finger 4,5 (Fn F4,5) fragment; made in house; host or cells: HEK293E cells, transient transfection, protein purified from the medium
T1 sequence (P02751 182-276 limits assumed): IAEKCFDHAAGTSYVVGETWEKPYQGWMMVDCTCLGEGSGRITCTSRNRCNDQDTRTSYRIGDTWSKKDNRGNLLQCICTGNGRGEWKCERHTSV
Method: (§1) The plates were blocked using Blocking reagent (Roche 1112589). A dilution series of the protein of interest was applied to the coated proteins and wells were subsequently washed using TBS-T (50 mM Tris pH 7.3, 150 mM NaCl and 0.1% Tween20). Bound protein is detected by the FLAG-tag using 1:3000 anti-FLAG-HRP (Sigma A-8592) in PBS-T, or by 1:1000 Ni-NTA-HRP (Qiagen 34530) in PBS-T. The HRP reaction Is performed using the TMB substrate (Biosource 4501103 or Tebu Bio 101TMB100-500), stopped using 10% H2SO4 and absorbance was measured at 450 nm.

[4] = test system: human tissue-type plasminogen activator finger EGF (tPA F-EGF) fragment; test: ELISA, binding of tPA F-EGF to coated (mis)folded proteins; settings: coated protein, FIG. 7A, I
Chain of human tissue-type plasminogen activator finger EGF (tPA F-EGF) fragment (P00750 39-120 limits assumed): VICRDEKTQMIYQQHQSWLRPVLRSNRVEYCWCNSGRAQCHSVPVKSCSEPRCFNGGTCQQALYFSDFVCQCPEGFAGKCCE
Method: as §1

Balb/c mice [5] = test: Immunization of mice with β2gpi preparations, serum binding to murine β2gpi; type: in vivo; settings: 100-fold diluted sera
Method: Female BalB/C cAnNHSd (Harlan) 7-9 weeks were housed in filtertop cages in groups of 5 mice per group. After approximately one week of adjustment to the environment, pre-immune sera were drawn. On the start of the first week, mice were given either 100 μl plasma (150 μg/ml) β2-Glycoprotein 1,100 μl alkyl-β2-Glycoprotein I (150 μg/ml) or 100 μl of a mixture of 150 μg/ml of 82-Glycoprotein I with 9.33 μM cardiolipin (CL-β2gpi). This latter sample was prepared by pre-incubating 400 μg/ml of 62-GPI with 25 μM of cardiolipin vesicles for at least 10 minutes at RT after mixing the sample by pipetting; afterwards samples were diluted to 150 μg/ml. […] All dilutions were made freshly in TBS and kept on ice. Injections were given intravenously in the tail veins of the mice and given on Mondays and Fridays of the first and third week. Blood was drawn three days prior to the experiment, and on Wednesdays of week 2 and 4 by puncture of vena Saphena. Blood was collected in Easycollect tubes, with Z serum clot activator. Sera were prepared by centrifugation in a tabletop centrifuge, with a rotor diameter of 7 cm, at 3800 rpm for 10 minutes (slow start and stop) and stored at −20° C. before analysis.
In this way, it was determined whether immunizations of mice with human β2gpi elicits a humoral auto-immune response against murine β2gpi.

Balb/c mice [6] = test: Immunization of mice with β2gpi preparations, titers against native human β2gpi; type: in vivo; settings: four injections of 15 μg antigen
Method: Female BalB/C cAnNHSd (Harlan) 7-9 weeks were housed in filtertop cages in groups of 5 mice per group. After approximately one week of adjustment to the environment, pre-immune sera were drawn. On the start of the first week, mice were given either 100 μl plasma (150 μg/ml) β2-Glycoprotein 1,100 μl alkyl-β2-Glycoprotein I (150 μg/ml) or 100 μl of a mixture of 150 μg/ml of 82-Glycoprotein I with 9.33 μM cardiolipin (CL-β2gpi). This latter sample was prepared by pre-incubating 400 μg/ml of 62-GPI with 25 μM of cardiolipin vesicles for at least 10 minutes at RT after mixing the sample by pipetting; afterwards samples were diluted to 150 μg/ml. […]
Sera were analyzed for antibodies against unmodified native (coated) β2-GPI. […] Antibody titers were determined by adding pooled sera of each experimental group (n=5) in three-fold serial dilutions (starting from 1:30, 50 μl/well) to plates coated with native human β2gpi. […] The plates were stained for approximately 5 minutes using 100 μL/well of TMB substrate (Biosource Europe, Nivelles, Belgium), the reaction was stopped with 50 μL/well of 2 M H2SO4 and read at 450 nm on a Spectramax340 microplate reader. The absorbance values were plotted against log dilution. […] For comparison, the dilution that yielded a residual absorbance after background subtraction of 0.1 was arbitrarily taken as the titer of the various sera.

| Molecule | ThT fluorescence enhancement of native and denatured proteins ([1]; 25 μg ml^−1) | anti-nOVA antibody titers in pooled sera (Balb/c mice [2]) | affinity of fibronectin F4,5 (detection anti-FLAG HRP) [3] | binding of tPA F-EGF [4] | Thioflavin T fluorescence of modified β2gpi ([1]; compared with native β2gpi) | titers against mouse self-β2gpi (Balb/c mice [5]) | humoral immune response compared to native β2gpi (Balb/c mice [6]) |
| --- | --- | --- | --- | --- | --- | --- | --- |
| dOVA: ovalbumin heat-denatured at 85° C., amyloid-like (protein) GSIGAASMEFCFDVFKELKVHHANENIFYCPIAIMSALAMVYLGAKDSTRTQINKVVRFDKLPGFGDSIEAQCGTSVNVHSSLRDILNQITKPNDVYSFSLASRLYAEERYPILPEYLQCVKELYRGGLEPINFQTAADQARELINSWVESQTNGIIRNVLQPSSVDSQTAMVLVNAIVFKGLWEKAFKDEDTQAMPFRVTEQESKPVQMMYQIGLFRVASMASEKMKILELPFASGTMSMLVLLPDEVSGLEQLESIINFEKLTEWTSSNVMEERKIKVYLPRMKMEEKYNLTSVLMAMGITDVFSSSANLSGISSAESLKISQAVHAAHAEINEAGREVVGSAEAGVDAASVSEEFRADHPFLFCIKHIATNAVLFFGRCVSP | filtration through a 0.2 μm filter does not reduce the enhancement of ThT fluorescence | higher antibody titers | clear difference in binding affinity | Much lower binding |  |  |  |
| alkyl-β2gpi: reduced and alkylated human β2-glycoprotein I (protein, UniProt P02749 20-345, looked up, reduced and alkylated, reduced and alkylated human β2-glycoprotein I) Beta-2-glycoprotein 1: GRTCPKPDDLPFSTVVPLKTFYEPGEEITYSCKPGYVSRGGMRKFICPLTGLWPINTLKCTPRVCPFAGILENGAVRYTTFEYPNTISFSCNTGFYLNGADSAKCTEEGKWSPELPVCAPIICPPPSIPTFATLRVYKPSAGNNSLYRDTAVFECLPQHAMFGNDTITCTTHGNWTKLPECREVKCPFPSRPDNGFVNYPAKPTLYYKDKATFGCHDGYSLDGPEEIECTKLGNWSAMPSCKASCKVPVKKATVVYQGERVKIQEKFKNGMLHGDKVSFFCKNKEKKCSYTEDAQCIDGTIEVPKCFKEHSSLAFWKTDASDVKPC |  |  |  |  | enhanced Thioflavin T fluorescence | higher titers against mouse self-β2gpi | far higher humoral immune responses |
